# Measurements: IntAct's records for PubMed 25751138
# B1: DASH complex subunit DAM1 (Saccharomyces cerevisiae), P53267 (parent)
# chain: MSEDKAKLGTTRSATEYRLSIGSAPTSRRSSMGESSSLMKFADQEGLTSSVGEYNENTIQQLLLPKIRELSDSIITLDSNFTRLNFIHESLADLNESLGSLLYGIMSNSWCVEFSQAPHDIQDDLIAIKQLKSLEDEKNNLVMELSNMERGIKRKKDEQGENDLAKASQNKQFNQPLFPSSQVRKYRSYDNRDKRKPSKIGNNLQVENEEDYEDDTSSEASFVLNPTNIGMSKSSQGHVTKTTRLNNNTNSKLRRKSILHTIRNSIASGADLPIENDNVVNLGDLHPNNRISLGSGAARVVNGPVTKNRNSMFSGRAERKPTESRHSVAKKTEKKINTRPPFR
# B2: DASH complex subunit DAM1 (Saccharomyces cerevisiae), P53267 (parent)
# chain: B1 chain
# partner: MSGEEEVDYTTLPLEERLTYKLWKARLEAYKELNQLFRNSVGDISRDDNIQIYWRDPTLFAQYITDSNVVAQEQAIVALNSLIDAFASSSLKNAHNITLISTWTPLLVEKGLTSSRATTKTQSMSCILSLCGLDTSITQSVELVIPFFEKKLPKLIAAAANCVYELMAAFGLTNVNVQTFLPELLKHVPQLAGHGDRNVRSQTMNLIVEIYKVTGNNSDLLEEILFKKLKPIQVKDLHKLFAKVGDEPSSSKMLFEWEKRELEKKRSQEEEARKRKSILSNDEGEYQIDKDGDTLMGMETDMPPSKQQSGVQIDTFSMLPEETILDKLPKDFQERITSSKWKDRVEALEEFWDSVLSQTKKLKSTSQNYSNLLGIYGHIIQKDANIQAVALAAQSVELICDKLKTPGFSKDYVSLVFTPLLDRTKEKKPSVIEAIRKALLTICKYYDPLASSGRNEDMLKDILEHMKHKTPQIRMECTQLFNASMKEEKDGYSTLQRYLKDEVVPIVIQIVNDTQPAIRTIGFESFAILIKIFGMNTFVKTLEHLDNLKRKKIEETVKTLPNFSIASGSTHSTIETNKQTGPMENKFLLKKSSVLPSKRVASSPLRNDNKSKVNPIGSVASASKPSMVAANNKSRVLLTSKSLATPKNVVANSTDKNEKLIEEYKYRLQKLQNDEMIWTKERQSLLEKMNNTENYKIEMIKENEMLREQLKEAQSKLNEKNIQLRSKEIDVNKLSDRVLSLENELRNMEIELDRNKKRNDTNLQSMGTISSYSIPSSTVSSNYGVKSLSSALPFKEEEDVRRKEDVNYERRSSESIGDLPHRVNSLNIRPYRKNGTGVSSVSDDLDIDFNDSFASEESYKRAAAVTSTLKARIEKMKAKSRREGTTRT
# Variants of: B1
# Details: with ndc80_yeast NDC80, P40460
# ndc80_yeast NDC80, P40460, sequence (P40460 whole entry): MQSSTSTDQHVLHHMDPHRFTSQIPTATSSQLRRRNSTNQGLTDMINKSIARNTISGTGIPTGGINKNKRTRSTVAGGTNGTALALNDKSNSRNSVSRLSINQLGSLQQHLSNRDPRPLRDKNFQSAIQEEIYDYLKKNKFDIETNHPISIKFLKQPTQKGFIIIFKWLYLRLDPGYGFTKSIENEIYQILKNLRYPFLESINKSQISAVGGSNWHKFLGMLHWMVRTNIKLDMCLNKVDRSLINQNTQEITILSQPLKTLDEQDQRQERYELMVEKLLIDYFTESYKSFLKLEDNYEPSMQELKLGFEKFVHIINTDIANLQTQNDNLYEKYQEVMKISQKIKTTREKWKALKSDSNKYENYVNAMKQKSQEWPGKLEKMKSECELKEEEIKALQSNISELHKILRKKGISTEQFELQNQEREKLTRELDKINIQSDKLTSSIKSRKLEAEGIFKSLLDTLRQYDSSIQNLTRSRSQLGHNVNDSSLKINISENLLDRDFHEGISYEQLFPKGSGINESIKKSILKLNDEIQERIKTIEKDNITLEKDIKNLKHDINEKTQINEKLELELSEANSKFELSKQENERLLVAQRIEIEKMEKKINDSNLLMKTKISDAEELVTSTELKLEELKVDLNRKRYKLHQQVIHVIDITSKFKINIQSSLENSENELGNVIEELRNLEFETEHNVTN
row,effect of a mutation on the interaction,Variant
1,decreasing interaction strength,S257D;S265D;S292D;S327D

# Variants of: B2
# Details: with stu2_yeast STU2, P46675
row,effect of a mutation on the interaction,Variant
1,disrupting interaction strength,S257D;S265D;S292D;S327D
